Reference: US20130273567A1, “Screening Method for Candidate Agonist Compounds for Adiponectin Receptor I” (priority 2010, published 2013)

Test system: C2C12 myocytes
Test: Mitochondrial content assay in C2C12 myocytes (mtDNA copy number, MitoTracker Green)
Type: cell-based, mouse
Experimental: Mice used were from 8 to 10 week old at the time of the experiment. […] Induction of myogenic differentiation using C2C12 cells was carried out according to the method described in the following document (Nature Med. 8, 1288-1295 (2002)). By day 5, the cells had differentiated into multinucleated contracting myocytes. C2C12 myocytes were used after myogenic differentiation in all experiments.
The mouse C2C12 myoblasts were grown in 90% Dulbecco's modified high glucose Eagle's medium containing 10% (v/v) fetal bovine serum. When the cells reached 80% confluent, the myoblasts were induced to differentiate into myocytes by replacing the medium with a low serum differentiation medium (98% Dulbecco's modified high glucose Eagle's medium, 2.5% (v/v) horse serum). The medium was changed daily. The C2C12 cells were transfected by using Pofectamine 2000 (Invitrogen) and following the manufacturer's instructions.
Mitochondrial content assays were carried out as described in the following document (Cell Metab. 4, 75-87 (2006)), with slight modifications. Quantification of the mitochondrial content was conducted by using mtDNA and MitoTracker Green probe (Molecular Probes) according to the method as described in the following document (Obes. Res. 13, 574-581 (2005)). MitoTracker Green probe preferentially accumulates in mitochondria regardless of the mitochondrial membrane potential and provides an accurate assessment of mitochondrial mass. Cells were washed with PBS and after addition of 100 nM MitoTracker Green FM (Molecular Probes), incubated at 37° C. for 30 min. Cells were harvested by using trypsin/EDTA and resuspended in PBS. Fluorescence intensity was detected with excitation and emission wavelengths of 490 and 516 nm, respectively, and the values thus measured were corrected for total protein (mg/ml).

[1] = C2C12 myocytes incubated with 30 μg/ml adiponectin

B1: adiponectin: recombinant murine full-length adiponectin, internal ligand of adiponectin receptor 1 (protein, UniProt Q60994 1-247, looked up)
chain: MLLLQALLFLLILPSHAEDDVTTTEELAPALVPPPKGTCAGWMAGIPGHPGHNGTPGRDGRDGTPGEKGEKGDAGLLGPKGETGDVGMTGAEGPRGFPGTPGRKGEPGEAAYVYRSAFSVGLETRVTVPNVPIRFTKIFYNQQNHYDGSTGKFYCNIPGLYYFSYHITVYMKDVKVSLFKKDKAVLFTYDQYQEKNVDQASGSVLLHLEVGDQVWLQVYGDGDHNGLYADNVNDSTFTGFLLYHDTN
modifications: full-length
mitochondrial biogenesis (C2C12 myocytes expressing PGC-1α-R13 mutant): failed to further induce | amount of mitochondria as assessed by MitoTracker green [1]: increased | mitochondrial DNA content [1]: increased
